# Results reported in patent US20040014159.
# B1: CD45, recombinant human receptor protein tyrosine phosphatase (protein)
# chain: SCNLDEQQELVERDDEKQLMNVEPIHADILLETYKRKIADEGRLFLAEFQSIPRVFSKFPIKEARKPFNQNKNRYVDILPYDYNRVELSEINGDAGSNYINASYIDGFKEPRKYIAAQGPRDETVDDFWRMIWEQKATVIVMVTRCEEGNRNKCAEYWPSMEEGTRAFGDVVVKINQHKRCPDYIIQKLNIVNKKEKATGREVTHIQFTSWPDHGVPEDPHLLLKLRRRVNAFSNFFSGPIVVHCSAGVGRTGTYIGIDAMLEGLEAENKVDVYGYVVKLRRQRCLMVQVEAQYILIHQALVEYNQFGETEVNLSELHPYLHNMKKRDPPSEPSPLEAEFQRLPSYRSWRTQHIGNQEENKSKNRNSNVIPYDYNRVPLKHELEMSKESEHDSDESSDDDSDSEEPSKYINASFIMSYWKPEVMIAAQGPLKETIGDFWQMIFQRKVKVIVMLTELKHGDQEICAQYWGEGKQTYGDIEVDLKDTDKSSTYTLRVFELRHSKRKDSRTVYQYQYTNWSVEQLPAEPKELISMIQVVKQKLPQKNSSEGNKHHKSTPLLIHCRDGSQQTGIFCALLNLLESAETEEVVDIFQVVKALRKARPGMVSTFEQYQFLYDVIASTYPAQNGQVKKNNHQEDKIEFDNEVDKVKQDANCVNPLGAPEKLPEAKEQAEGSEPTSGTEGPEHSVNGPASPALNQGS
# B2: PTP-1B, soluble tyrosine phosphatase (enzyme, UniProt P18031 1-435, looked up, species assumed)
# Tyrosine-protein phosphatase non-receptor type 1: MEMEKEFEQIDKSGSWAAIYQDIRHEASDFPCRVAKLPKNKNRNRYRDVSPFDHSRIKLHQEDNDYINASLIKMEEAQRSYILTQGPLPNTCGHFWEMVWEQKSRGVVMLNRVMEKGSLKCAQYWPQKEEKEMIFEDTNLKLTLISEDIKSYYTVRQLELENLTTQETREILHFHYTTWPDFGVPESPASFLNFLFKVRESGSLSPEHGPVVVHCSAGIGRSGTFCLADTCLLLMDKRKDPSSVDIKKVLLEMRKFRMGLIQTADQLRFSYLAVIEGAKFIMGDSSVQDQWKELSHEDLEPPPEHIPPPPRPPKRILEPHNGKCREFFPNHQWVKEETQEDKDCPIKEEKGSPLNAAPYGIESMSQDTEVRSRVVGGSLRGAQAASPAKGEPSLPEKDEDHALSYWKPFLVNMCVATVLTAGAYLCYRFLFNSNT
# Columns and labels:
# [1] = system: T1, bis-SPK-2 (KKALRRASLKG-R110-GKLSARRLAKK)
# T1 sequence: KKALRRASLKG
# [2] = system: T2, bis-STP-R110 (RRAT(PO3)VA-R110-AV(PO3)TARR)
# T2 sequence: RRATVA
# [3] = system: T3, bis-PTK5p-R110 (YIY(PO3)GAFKRRG-R110-GRRKFAG(PO3)YIY)
# T3 sequence: YIYGAFKRRG
# [4] = system: T4, LRRASLG-R110-GLSARRL, bis-rhodamine peptide kinase substrate (bis-kemptide)
# T4 sequence: LRRASLG
# [5] = system: T5, bis-SPK-4 (KKALRKASVRG-R110-GRVSAKRLAKK)
# T5 sequence: KKALRKASVRG
# [6] = system: T6, kemptide-AMC (LRRASLG-AMC)
# T6 sequence: LRRASLG
# [7] = system: T7, bis-PTK-5 (YIYGAFKRRG-R110-GRRKFAGYIY)
# T7 sequence: YIYGAFKRRG
# [8] = molecular target: T8, bis-PTK5p-R110 (YIY(PO3)GAFKRRG-R110-GRRKFAG(PO3)YIY) (not fully specified)
# T8 chain: YIYGAFKRRG
molecule,measurement,setting,value
AKT,fluorescence output after aminopeptidase M,[1],the change in output fluorescence in each assay was inversely proportional to the amount of enzyme in the reaction (Results not shown)
PKC,fluorescence output after aminopeptidase M,[1],the change in output fluorescence in each assay was inversely proportional to the amount of enzyme in the reaction (Results not shown)
PKG,fluorescence output after aminopeptidase M,[1],the change in output fluorescence in each assay was inversely proportional to the amount of enzyme in the reaction (Results not shown)
PP1,fluorescence output after aminopeptidase M,[2],The results obtained show excellent proportionality between the fluorescence output and dephosphorylation of the substrate
PP2B,fluorescence output after aminopeptidase M,[2],The results obtained show excellent proportionality between the fluorescence output and dephosphorylation of the substrate
PP2C,fluorescence output after aminopeptidase M,[2],The results obtained show excellent proportionality between the fluorescence output and dephosphorylation of the substrate
YOP 51,fluorescence output after aminopeptidase M,[3],"A similar profile was obtained with other tyrosine phosphatases, including YOP 51"
catalytic subunit of cAMP-dependent protein kinase (PKA),fluorescence output (RFU) after aminopeptidase M,[4],there is a corresponding decrease in fluorescence output with increasing concentration or units of enzyme in the reaction
same,"kinase reaction, fluorescence output after aminopeptidase M",[1],the peptide substrate bis-SPK-2 is a better substrate for PKA than the peptide substrate bis-SPK-4
same,"kinase reaction, fluorescence output after aminopeptidase M",[5],the peptide substrate bis-SPK-2 is a better substrate for PKA than the peptide substrate bis-SPK-4
same,"fluorescence output (AMC) after aminopeptidase M, with and without 50 uM ATP",[6],"In the presence of ATP, the fluorescence output decreased in proportion to the increase in amount of enzyme"
serine/threonine phosphatase PP2A,fluorescence output after Aminopeptidase II,[2],an increase in phosphatase activity resulted in an increase in fluorescence
same,fluorescence output after aminopeptidase M,[2],"PP2A dephosphorylated the substrate efficiently, and fluorescence increased proportionally to the amount of enzyme in the reaction"
tyrosine kinase lck,"fluorescence output after aminopeptidase M, with and without 100 uM ATP",[7],"where 100 um ATP was included the decrease in fluorescence output was proportional to the increase in amount of enzyme in the reaction, and little or no change was observed in the absence of ATP"
B1,fluorescence output after aminopeptidase M,[8],the increase in the fluorescence output is proportional to the amount of phosphatase added per reaction
B2,fluorescence output after aminopeptidase M,[3],the increase in the fluorescence output is proportional to the amount of phosphatase added per reaction
